This note sets out measurements from PMC6294510.

Read-outs that look alike come from different tables or passages of the source.

Series [1] concerns the target T1, ARTD2FL WT (Homo sapiens, UniProt Q9UGN5 1-583). The series can be described thus: EMSA. Background: A gel shift assay detects complexes by their altered migration in electrophoresis.
The target of series [2] is T2, ARTD2WGR (Homo sapiens, UniProt Q9UGN5 90-218). The series can be described thus: X-ray crystallography.
Series [3] concerns the target T2, ARTD2WGR. In words: X-ray crystallography. The source holds these as a separate data set.
A further series concerns the target ARTD2FL K179A (Homo sapiens, UniProt Q9UGN5 1-583, K179A). In words: SPR. On the technique in general: Surface plasmon resonance follows binding to a sensor surface in real time, without labels.
A further series addresses ARTD2FL R153A (Homo sapiens, UniProt Q9UGN5 1-583, R153A). The series can be described thus: SPR.
The target of another series is ARTD2FL W151A (Homo sapiens, UniProt Q9UGN5 1-583, W151A). In words: SPR.
Sequence of ARTD2FL W151A (Q9UGN5 whole entry W151A): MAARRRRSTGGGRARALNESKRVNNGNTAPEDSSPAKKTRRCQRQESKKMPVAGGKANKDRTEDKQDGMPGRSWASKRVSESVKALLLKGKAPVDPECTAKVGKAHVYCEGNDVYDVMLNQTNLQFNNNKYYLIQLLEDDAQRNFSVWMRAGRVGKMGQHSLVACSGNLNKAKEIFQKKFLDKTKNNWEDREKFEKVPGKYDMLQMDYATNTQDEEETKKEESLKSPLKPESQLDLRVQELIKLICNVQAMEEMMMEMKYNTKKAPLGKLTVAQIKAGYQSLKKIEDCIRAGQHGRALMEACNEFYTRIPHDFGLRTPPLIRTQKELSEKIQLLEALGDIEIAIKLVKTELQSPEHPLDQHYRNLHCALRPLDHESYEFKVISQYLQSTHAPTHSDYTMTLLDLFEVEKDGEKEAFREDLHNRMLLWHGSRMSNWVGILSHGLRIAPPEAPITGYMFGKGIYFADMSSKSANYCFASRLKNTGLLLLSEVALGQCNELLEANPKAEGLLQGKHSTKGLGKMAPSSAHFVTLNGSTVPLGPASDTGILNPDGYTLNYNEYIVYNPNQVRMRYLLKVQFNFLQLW
The target in the next series is ARTD2FL Y201F (Homo sapiens, UniProt Q9UGN5 1-583, Y201F). In words: SPR.
Sequence of ARTD2FL Y201F (Q9UGN5 whole entry Y201F): as the sequence (Q9UGN5 whole entry W151A) above, with A151W, Y201F counted along it
For a further series, the target named is ARTD2FL K183A (Homo sapiens, UniProt Q9UGN5 1-583, K183A). In words: SPR.
Sequence of ARTD2FL K183A (Q9UGN5 whole entry K183A): as the sequence (Q9UGN5 whole entry W151A) above, with A151W, K183A counted along it
A further series has as its target ARTD2FL N127A (Homo sapiens, UniProt Q9UGN5 1-583, N127A). In words: SPR.
The target of series [4] is T3, ARTD2WGR+CAT (Homo sapiens, UniProt Q9UGN5 90-583). The series can be described thus: SEC-SLS.
T3 sequence (Q9UGN5 90-583): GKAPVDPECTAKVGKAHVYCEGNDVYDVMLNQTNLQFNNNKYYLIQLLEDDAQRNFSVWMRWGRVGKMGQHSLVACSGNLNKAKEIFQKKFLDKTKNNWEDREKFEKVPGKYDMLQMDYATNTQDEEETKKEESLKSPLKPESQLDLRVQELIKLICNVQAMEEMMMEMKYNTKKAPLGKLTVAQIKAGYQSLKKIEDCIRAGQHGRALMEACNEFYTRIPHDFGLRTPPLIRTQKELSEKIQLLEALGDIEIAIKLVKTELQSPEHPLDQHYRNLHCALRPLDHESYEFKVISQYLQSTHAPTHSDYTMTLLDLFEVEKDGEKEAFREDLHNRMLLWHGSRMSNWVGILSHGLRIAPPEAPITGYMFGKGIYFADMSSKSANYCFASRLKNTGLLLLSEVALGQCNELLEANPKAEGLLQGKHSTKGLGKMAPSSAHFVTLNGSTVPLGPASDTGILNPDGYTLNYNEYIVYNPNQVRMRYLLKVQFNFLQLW
For series [5], the target named is T1, ARTD2FL WT. The series can be described thus: SEC-SLS.
The target in series [6] is T1, ARTD2FL WT. In words: ITC. (ITC needs no label: the signal is the heat of the interaction.)
The target in series [7] is T2, ARTD2WGR. In words: X-ray crystallography. This is another data set of the same source.
For series [8], the target named is T3, ARTD2WGR+CAT. In words: SEC-SLS. The source holds these as a separate data set.

T2 sequence (Q9UGN5 90-218): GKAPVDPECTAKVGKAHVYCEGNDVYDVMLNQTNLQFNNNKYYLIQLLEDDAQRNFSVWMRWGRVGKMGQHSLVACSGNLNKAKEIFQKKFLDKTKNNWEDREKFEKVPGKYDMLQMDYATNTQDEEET
T1 sequence (Q9UGN5 whole entry): as the sequence (Q9UGN5 whole entry W151A) above, with A151W counted along it
Sequence of ARTD2FL K179A (Q9UGN5 whole entry K179A): as the sequence (Q9UGN5 whole entry W151A) above, with A151W, K179A counted along it
Sequence of ARTD2FL R153A (Q9UGN5 whole entry R153A): as the sequence (Q9UGN5 whole entry W151A) above, with A151W, R153A counted along it
Sequence of ARTD2FL N127A (Q9UGN5 whole entry N127A): as the sequence (Q9UGN5 whole entry W151A) above, with N127A, A151W counted along it

For GGAAGTTCTTTTGAACTTCCGCGAAGCTTTTGCTTCGC (structured_DNA, 5'-phosphate) [DNA-2 nicked dumbbell], the binding result with ARTD2FL WT [1] was “binds”.

B1: DNA-9 (dsDNA)
DNA 1: CGGTCGCCTATAGGC
DNA 2: CGGTCGCCTATAGGC
modifications: 5'-phosphate on both strands
Consider B1, for which, in the series with ARTD2WGR [2], the binding result was “binds”.

B2: DNA-6 (dsDNA)
DNA 1: GCCTAGCTACGTAGCTAGGC
DNA 2: GCCTAGCTACGTAGCTAGGC
For B2, the binding result with ARTD2WGR [3] is “binds”.

B3: DNA-12 (dsDNA)
DNA 1: GCAGCATGGCGGAGTTCACA
DNA 2: TGTGAACTCCGCCATGCTGC
modifications: 5'-phosphate on forward strand
As for B3, the binding result in the series with ARTD2FL K179A, with ARTD2FL R153A, in the series with ARTD2FL W151A, with ARTD2FL Y201F, in the series with ARTD2FL K183A and in the series with ARTD2FL N127A was “no binding” in each case.

B4: DNA-13 (dsDNA)
DNA 1: GACGCAACCCGGAGAACACA
DNA 2: TGTGTTCTCCGGGTTGCGTC
modifications: 5'-phosphate on forward strand
With B4, the binding result with ARTD2WGR+CAT [4] and in the series with ARTD2FL WT [5] was “binds” each time.

As to GGAAGTTCTTTTGAACTTCC (structured_DNA) [DNA-3 blunt hairpin], in the series with ARTD2FL WT [6], the binding result was “binds”.

B5: DNA-5 (dsDNA)
DNA 1: GCCTATAGGC
DNA 2: GCCTATAGGC
modifications: 5'-phosphate on both strands
Consider B5, for which, in the series with ARTD2WGR [7], the binding result was “binds”. Turning to GGGTCTTTTGACCCTCGAGCTTTTGCTCGA (structured_DNA, 5'-phosphate) [DNA-1 nicked hairpin], the binding result in the series with ARTD2WGR+CAT [8] and with ARTD2FL WT [6] was “binds” throughout.
